B1: CH101-huIgG1(N297A) (antibody)
heavy: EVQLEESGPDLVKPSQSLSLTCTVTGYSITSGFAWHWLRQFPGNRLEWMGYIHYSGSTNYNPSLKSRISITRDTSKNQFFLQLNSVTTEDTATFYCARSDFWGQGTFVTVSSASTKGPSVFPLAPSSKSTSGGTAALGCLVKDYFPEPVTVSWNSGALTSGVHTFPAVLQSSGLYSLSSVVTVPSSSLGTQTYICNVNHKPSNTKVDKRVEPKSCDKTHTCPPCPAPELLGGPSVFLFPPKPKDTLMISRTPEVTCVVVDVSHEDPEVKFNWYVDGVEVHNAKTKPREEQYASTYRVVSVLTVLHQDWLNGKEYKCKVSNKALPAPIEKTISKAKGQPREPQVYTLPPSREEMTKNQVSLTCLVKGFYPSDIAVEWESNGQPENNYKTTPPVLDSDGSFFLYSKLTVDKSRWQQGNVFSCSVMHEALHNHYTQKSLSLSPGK
light: DVVMTQTPLNLSVTFGQPVSISCTSSQSLLDRDGETFMNWLFQRPGQSPKRLIYLVSKLDFGVPDRFTGSGSGTDFTLKISRVEAEDLGIYYCWQGTHFPLTFGGGTKLEIKRTVAAPSVFIFPPSDEQLKSGTASVVCLLNNFYPREAKVQWKVDNALQSGNSQESVTEQDSKDSTYSLSSTLTLSKADYEKHKVYACEVTHQGLSSPVTKSFNRGEC
notes: Detected with a second anti-human Fc antibody
B2: CH101-huIgG1(L/S) (antibody)
heavy: EVQLEESGPDLVKPSQSLSLTCTVTGYSITSGFAWHWLRQFPGNRLEWMGYIHYSGSTNYNPSLKSRISITRDTSKNQFFLQLNSVTTEDTATFYCARSDFWGQGTFVTVSS
light: B1 light
notes: Detected with a second anti-human Fc antibody; not shown: human IgG1 constant region with a modification printed only as '(L/S)'
B3: CH101-huIgG1 (antibody)
heavy: not shown
light: B1 light
notes: also called chimeric CH101; CH101-IgG1
B4: CH101-huIgG4 (antibody)
heavy: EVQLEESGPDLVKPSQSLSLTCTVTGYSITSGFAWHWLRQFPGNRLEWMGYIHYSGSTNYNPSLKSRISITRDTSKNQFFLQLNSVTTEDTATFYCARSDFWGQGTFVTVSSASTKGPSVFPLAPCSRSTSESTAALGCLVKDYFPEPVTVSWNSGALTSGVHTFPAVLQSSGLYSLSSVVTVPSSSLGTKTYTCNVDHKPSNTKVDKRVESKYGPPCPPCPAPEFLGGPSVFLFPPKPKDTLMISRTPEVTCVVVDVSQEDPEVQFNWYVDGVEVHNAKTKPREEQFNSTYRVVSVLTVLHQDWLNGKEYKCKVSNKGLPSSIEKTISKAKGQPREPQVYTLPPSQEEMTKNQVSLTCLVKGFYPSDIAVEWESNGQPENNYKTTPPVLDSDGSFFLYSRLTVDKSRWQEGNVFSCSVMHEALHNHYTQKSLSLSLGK
light: B1 light
notes: Chimeric CH101 on human IgG4; Detected with a second anti-human Fc antibody; also called CH101-IgG4
B5: hufrCH101-IgG1 (antibody)
heavy: not shown
light: DVVMTQSPLSLPVTLGQPASISCTSSQSLLDRDGETFMNWFQQRPGQSPRRLIYLVSKLDFGVPDRFSGSGSGTDFTLKISRVEAEDVGVYYCWQGTHFPLTFGGGTKVEIKRTVAAPSVFIFPPSDEQLKSGTASVVCLLNNFYPREAKVQWKVDNALQSGNSQESVTEQDSKDSTYSLSSTLTLSKADYEKHKVYACEVTHQGLSSPVTKSFNRGEC
notes: 97.0% humanized CH101 (641/661) by CDR grafting, human IgG1; also called huCH101-IgG1; huCH101
B6: anti-Δ42PD1 antibody CH34 (antibody, mouse IgG2b, kappa, V domains shown)
VH: EVKLVESGGGLVQPGGSRKLSCAASGFTFSDYGMAWVRQAPGKGPEWVAFISSLAYTIYYADTVTGRFTISRENAKNTLYLEMSSLRSEDTAMYYCARGGAGFAYWGQGTLVTVSA
VL: DIQMTQSSSYLSVSLGGRVTITCKASDHINNWLAWYQQKPGNAPRLLISGATSLETGVPSRFSGSGSGKDYTLSITSLQTEDVATYYCQQYWSTPWTFGGGTKLEIKR
notes: Murine monoclonal antibody (msIgG2b isotype control used beside it); both are entered as this one molecule; also called murine CH34; mouse CH34 mAb
B7: murine CH101 (antibody, V domains shown)
VH: B2 heavy
VL: DVVMTQTPLNLSVTFGQPVSISCTSSQSLLDRDGETFMNWLFQRPGQSPKRLIYLVSKLDFGVPDRFTGSGSGTDFTLKISRVEAEDLGIYYCWQGTHFPLTFGGGTKLEIK
notes: Hybridoma-derived, fully murine monoclonal antibody; a mouse IgG1 control was used beside it in vivo; also called parental murine CH101; original CH101 (parental, fully murine)

What was measured:
Δ42PD1 [1] = biological target: T1, Δ42PD1 (human); assay: flow cytometry on 293T-Δ42PD1 cells, antibody 10 ng/ml, second anti-human Fc antibody
T1 construct: whole, on cells
Description: Human IgG1 isotype was used as a negative control.
To exploit the therapeutic activities of CH101 variants, we made various modifications in the constant regions of the chimeric version or humanized version of CH101, thus resulting a serial of CH101 humanized antibodies, including CH101-huIgG1(N297A), CH101-huIgG1(L/S), CH101-huIgG4, huCH101-IgG1, huCH101-IgG4, CH101-huIgG1 (chimeric CH101). The original CH101 (parental, fully murine) was included as the positive control for these humanized versions. […] All humanized antibodies could recognize Δ42PD1 expressed on the cell surface but with different specificity (FIGS. 3A-3I). The detailed statistical analysis elucidated the activity of versions of humanized antibodies in interacting with Δ42PD1 at different specificity and sensitivity (Table 1). […] Due to the limited expression of chimeric versions of CH101 with Fc engineering, including CH101-huIgG1(N297A), CH101-huIgG1(L/S) and CH101-huIgG4, the amount of these antibody was insufficient for fluorescence labelling.

Δ42PD1 [2] = biological target: T1, Δ42PD1; assay: flow cytometry on 293T-Δ42PD1 cells, antibody 10 ng/ml; average ± deviation
PD-1-GFP = biological target: T2, PD-1-GFP (UniProt Q15116 25-288); assay: flow cytometry on RPMI8866 B cells transfected with PD-1-GFP
T2 construct: whole, on cells; Expressed from a PCDH plasmid in RPMI8866 B cells by electroporation; also called PD-1 expressed on human B cells; not shown: GFP
T2 sequence (Q15116 25-288): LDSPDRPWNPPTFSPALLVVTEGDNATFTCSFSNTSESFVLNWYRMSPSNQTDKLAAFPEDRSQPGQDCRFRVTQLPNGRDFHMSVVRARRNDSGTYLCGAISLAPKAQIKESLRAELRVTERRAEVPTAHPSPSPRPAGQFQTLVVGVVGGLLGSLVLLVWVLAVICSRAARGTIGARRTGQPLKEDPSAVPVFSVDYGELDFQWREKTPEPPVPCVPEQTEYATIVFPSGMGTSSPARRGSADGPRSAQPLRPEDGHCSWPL
Procedure: To test the specificity of anti-Δ42PD1 antibody CH34 as compared with the anti-PD1 antibody (EH12.2H7), RPMI8866 B cells are transfected with a plasmid PCDH expressing Δ42PD-1-GFP, PD-1-GFP or GFP along by Neon electroporation system. Untransfected RPMI8866 B cells are included as controls. Two days after the transfection, the transfection efficiency is determined by flow cytometry analysis on GFP (upper panel). The specificity of anti-Δ42PD1 antibody CH34 and anti-PD1 antibody EH12.2H7 is measured by analysis on PD-1 and Δ42PD1 expression (lower panel).

PD1 = biological target: T3, PD1 (human, UniProt Q15116 25-288); assay: flow cytometry on 293T cells transfected with a PCDH plasmid expressing PD-1
T3 construct: whole, on cells; also called CD279
T3 sequence (Q15116 25-288): as above
Procedure: Untransfected cells are included as controls. Two days after the transfection, the specificity of anti-Δ42PD1 antibody CH34 and anti-PD1 antibody EH12.2H7 is measured by analysis on PD-1 and Δ42PD1 expression.

Binder	293T-Δ42PD1 (%) (Δ42PD1 [1])	293T-Δ42PD1 (%) (Δ42PD1 [2])	also measured
B1	68.3		
B2	65.7		
B3		70.1	
B4	62.8		
B5		45.5	
B6			binding result (PD-1-GFP): no binding; binding result (PD1): no binding
B7		59.2	
